Experimental data as given in patent US12076390 (Dana-Farber, dated 2024).

Molecular target: HA on infectious virus A/Brisbane/10/07 (H3N2-BR07) (influenza A virus A/Brisbane/10/07 …)
Assay: cell-based or functional assay

B1: 3I14 VLD94N IgG1 (antibody, V domains shown)
VH: QVQLLESGGGVVQPGRSLRLSCAASGFTFSNYGMHWVRQAPGKGLEWVAIISFDGSKKYYANSVKGRSTISRDNSKNTLSLQMNSLGPEDTALYYCAKLPSPYYFDSRFVWVAASAFHFWGQGILVTVSS
VL: NFMLTQPPSASGTPGQRVTISCSGSSSNIGGNTVHWFQQLPGTAPKLLIYTNSLRPSGVPDRFSGSKSGTSASLAISGLQSEDEADYYCAAWDNSLNGQVFGGGTKLTVL
For B1, the “IC50, neutralization of infectious H3-BR07 virus” value was 0.337 µg/mL.
